Measured values reported in the supplement of paper PMC10567573.
± gives the standard deviation.

Assay: protein stability index of a GFP-peptide fusion (GPS, HEK-293T) (PSI 1-6); higher = more stable
Settings: c terminus: a fixed tail appended
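Also: 24-mer peptide tiles fused after GFP, lentivirally expressed, FACS-sorted into six equal bins by GFP/DsRed ratio, decoded by Illumina sequencing, PSI is the read-weighted mean bin number.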

Sequence | protein stability index (treatment: DMSO) | protein stability index (treatment: MLN4924 1 uM, 8 h)
MEYCLEVIKENDPSGFLQISDALI [TRIM9] | 2.47 ± 0.29 | 2.69 ± 0.28
MFLQLVPSWNGSLKQLLTETDVWF [GMCL1] | 3.13 ± 0.68 | 2.56 ± 1.3
MGNSMKSTPAPAERPLPNPEGLDS [SLA] | 5.07 ± 0.49 | 5.13 ± 0.59
MGQVLPVFAHCKEAPSTASSTPDS [RTN2] | 4.67 ± 0.25 | 4.83 ± 0.23
MGWEGPNSRVDDTFWASWRAFAQI [MIR22HG] | 2.45 ± 0.28 | 2.21 ± 0.17
MHYCAVPPRGPLGQGAMFRLPTDS [NEUROD6] | 2.97 ± 0.29 | 3.17 ± 0.38
MLQSFINYCLLFLIYTVMLAFRSG [SLC35F2] | 2.83 ± 0.4 | 3.42 ± 0.28
MMMMGPKEEEQSCEYETRLPGNHS [ZNF232] | 4.51 ± 0.48 | 4.64 ± 0.4
MNKGDTEVMKCIVEVISDTLSKPS [CHGA] | 2.84 ± 0.3 | 2.86 ± 0.31
MPPGLHHQRKYTQSFCGENIMMPM [ZNF207] | 2.29 ± 0.6 | 2.27 ± 0.34
MPPQPGIPQQQGMRPPMPPHGQYG [ZNF207] | 4.31 ± 0.2 | 4.43 ± 0.11
MQRLVAWDPACLPLPPPPPAFKSM [CEBPB] | 2.63 ± 0.39 | 2.91 ± 0.39
MQVIAIVLYLMMPIVNISEVLGPL [PHTF1] | 3.08 ± 0.29 | 3.34 ± 0.38
MRHIRFLKNEVERLKKQLRAAQLQ [CCDC6] | 2.31 ± 0.25 | 2.23 ± 0.25
MRLSSSPPRGPQQLSSFGSVDWLS [VENTX] | 2.99 ± 0.059 | 3.15 ± 0.3
MRMSDTVTVKDETATMKDLEAEVK [R3HDM1] | 5.46 ± 0.072 | 5.37 ± 0.092
MRYLRNHCLDQVGLFRKSGVKSRI [DLC1] | 2.64 ± 0.36 | 2.64 ± 0.37
MSAKLGKSSSLLTQTSEECNGILT [ZNF396] | 3.99 ± 0.16 | 4.2 ± 0.22
MSNQQEKYEAQNIVNSTEESDDAF [IQUB] | 5.65 ± 0.18 | 5.47 ± 0.29
MSQTGSHPGRGLAGRWLWGAQPCL [ADAMTS4] | 3 ± 0.38 | 2.28 ± 0.87
MTELRQRVAHEPVAPPEDKESESE [CDS2] | 5.39 ± 0.26 | 5.44 ± 0.23
MTGTPKTQEGAKDLEVDMNKTEVT [ACSBG2] | 5.64 ± 0.35 | 5.68 ± 0.27

Sequence | protein stability index (treatment: DMSO) | protein stability index (treatment: MLN4924 1 uM, 8 h)
MWPPDPDPDPDPEPAGGSRPGPAV [CMTM3] | 5.02 ± 0.062 | 5.124 ± 0.016
NAAHSLLSTNDKTIKLWKITERDK [PPP2R2C] | 3.68 ± 0.085 | 3.82 ± 0.27
NCPGQYTFSMPSDSHVSSCSEDWV [CD69] | 3.8 ± 0.21 | 4.06 ± 0.22
NDIMAYMFGFFFGRTPLIKLSPKK [CDS2] | 2.03 ± 0.31 | 2.08 ± 0.22
NGSCENSDASSHANAAKHTQDSAR [EHMT1] | 5.27 ± 0.37 | 5.3 ± 0.2
NHLQTHDPNKMAFGCEECGKKYNT [PLAGL1] | 4.14 ± 0.16 | 4.77 ± 0.27
NHMYSCRFSRQCVVDKDKRNQCRY [HNF4A] | 2.61 ± 0.057 | 2.56 ± 0.074
NILIYETPRGPDPALLEATGGAAG [KCTD13] | 3.88 ± 0.19 | 3.84 ± 0.45
NIPFFPDLQITDQVALLRLTWSEL [NR2F2] | 2.68 ± 0.45 | 2.12 ± 0.58
NIQAGINENDFYDGAWCAGRNDLQ [CPXM2] | – | 3.48 ± 0.71
NIRSARGNNPNGREAKMICFKSVA [ELOA2] | 3.4 ± 0.15 | 3.34 ± 0.27
NITVVKGIRLSENVIDRMKESSPS [CHCHD3] | 3.66 ± 0.29 | 3.51 ± 0.28
NKKAKRYLLHGLECVVAMHQAQLI [EIF5] | 3.02 ± 0.47 | 2.5 ± 0.4
NKRLAKYRMRNVHPKPKLVRVLES [CLCN6] | 3.1 ± 0.33 | 3 ± 0.29
NKTEVTPRLWTTCRDGEVLLRLSK [ACSBG2] | 2.4 ± 0.22 | 2.37 ± 0.21
NLQDLCRIKIRQCIGLQNLKLLDE [ASB7] | 3.57 ± 0.24 | 3.56 ± 0.31
NNDDDEDEDDEDEDEDEDEDEDED [TAF7L] | 5.57 ± 0.15 | 5.55 ± 0.23
NNPISEHFHPTVIGESMYGDFEEA [TENT5C] | 4.89 ± 0.28 | 4.89 ± 0.17
NNQSDLEKEMQKMNPYKIDIGAVY [PRIM1] | 3.03 ± 0.24 | 3.03 ± 0.16
NPKDCSENIEVKEGGLYFERRPVA [SPSB2] | 4.68 ± 0.17 | 4.76 ± 0.058
NPQSPPQDSSVTSKRNIKKGAVPR [HDAC6] | 4.99 ± 0.43 | 5.14 ± 0.38
NQQLRNELQLEQSRAANQEQRAND [CEP70] | 5.48 ± 0.11 | 5.42 ± 0.24

Sequence | protein stability index (treatment: DMSO) | protein stability index (treatment: MLN4924 1 uM, 8 h)
NQRMKSKRWQKNNWPKNSNGVTQK [NANOGP8] | 3.89 ± 0.44 | 4.2 ± 0.42
NQTAELRELLEFTHMYLQSDDEME [P3H4] | 4.83 ± 0.19 | 4.7 ± 0.18
NQTALHLAAAHGHSEVVEELVSAD [RIPK4] | 5.46 ± 0.082 | 5.36 ± 0.11
NRDEVLDNLLAFVCDIRPEIHENY [ATP6V1G1] | 2.49 ± 0.51 | 2.71 ± 0.37
NRQCLCSAESMVEYGTCMCLVKGI [SPRY1] | 3.82 ± 0.28 | 3.83 ± 0.26
NRSLAEACSEGDVNAVRKLLIEGR [ANKRD17] | 4.01 ± 0.26 | 4.12 ± 0.27
NSMPVDNRNHNEGMVTRCIIEVLS [CHGB] | 2.77 ± 0.14 | 2.59 ± 0.3
NSTGGDCFYRGYTSGVAAVQDWYH [SCNN1D] | 2.36 ± 0.16 | 2.43 ± 0.5
NVPNVCRMYCSDLLNPNLKDTVIC [SPACA3] | 2.15 ± 0.3 | 2.31 ± 0.28
NVPRICGVCGDRATGFHFNAMTCE [VDR] | 2.83 ± 0.39 | 2.73 ± 0.2
NYEKLSRGLRYYYDKNIIHKTAGK [ETS1] | 2.69 ± 0.15 | 2.89 ± 0.43
NYGKILVEKNEHCIENNIDLQVNR [R3HDM1] | 3.56 ± 0.33 | 3.75 ± 0.19
NYMKILLKVGGILVMPIEDQLTQI [PCMTD1] | 3.08 ± 0.75 | 2.88 ± 0.8
PAAPTPESFTVHFLPLNSAQTLHH [DNAAF3] | 2.87 ± 0.22 | 3.02 ± 0.23
PAEDPDDYDDGFSMKHTATARFQR [SMARCE1] | 4.81 ± 0.13 | 4.89 ± 0.17
PAPAPLVPQDPDLEEEEEEEDLVL [ZBTB22] | 5.59 ± 0.33 | 5.69 ± 0.2
PAPERTMAGLSKEPNTLRAPRVRT [VENTX] | 4.86 ± 0.29 | 4.85 ± 0.32
PAPTATVPAPQPPVTKPLFPSAGQ [ZNF207] | 4.82 ± 0.39 | 4.8 ± 0.18
PASYTAPIMSGQGLAGFFASVAMI [SLC29A1] | 2.59 ± 0.58 | 2.44 ± 0.48
PCAGLNCQALDANLDANLAFASFT [TLE6] | 2.98 ± 0.33 | 2.99 ± 0.28
PDDKLTLFCEVSVVQDSVNISGHT [SPOPL] | 2.47 ± 0.52 | 2.81 ± 0.49
